{"source": "the supplement of paper PMC9170038"}
{"tested_on": "MS2 coat protein", "experiment": "apparent KD of MS2 coat protein, switch ON state; designed switch direction (-1 OFF switch, 1 ON switch): -1; higher = weaker reporter binding", "conditions": "FMN input: 0 or 200 uM; Eterna round: R93 (includes R88 designs)", "in_short": "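Binding of SNAP-549-labelled MS2 coat protein was measured on designed RNA switches transcribed on-chip from Illumina sequencing clusters. The protein rose in twofold steps from 0.7 or 1.5 nM to 3 µM, with 0.8–1.5 h per step early on and 10–20 min per step later, in 100 mM Tris-HCl pH 7.5, 80 mM KCl, 4 mM MgCl2, without or with constant ligand. Each design's apparent KD is the median of fits to its normalised cluster binding curves.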", "units": {"apparent KD of MS2 coat protein": "nM"}}
{"sequence": "CUCAAGUGAGGAUAUUUAAGAAAAGAAGAGAAAGAAAAGAAAAAGAAGGCACAUGAGGAUCACCCAUGUAAGAA [EteRNA is fun!]", "apparent KD of MS2 coat protein": 31.5}
{"sequence": "AGAACGUGAGGAUAUACUAACAAACCUCAACAAACAAACAGACAUGAGGAUCACCCAUGUAGAAGGCACAAAAA [EXC - 2]", "apparent KD of MS2 coat protein": 54.2}
{"sequence": "AAAAAACAUGAGGAUCACCCAUGUGAGGAUAUCGCUAGUCAGUCAUCAGAGUGAGUGAUGAGAAGGCACAUAAA [Brourd 613 Mod 6 - Jieux - Exclusion 1]", "apparent KD of MS2 coat protein": 26.3}
{"sequence": "AAGAAAGCAGGAUAUACAAGAAAGAAAGAAAAGAAAAGAAAACAUGAGGAUCACCCAUGUAGAAGGGCUUAGAA [EteRNA is fun!]", "apparent KD of MS2 coat protein": 27.9}
{"sequence": "UCCUCACAUGAGGAUCACCCAUGUGAGGAUAUGUACAUCAGGAAAAAAAAACUGAUGUACAGAAGGCACAUGAA [Design 10: Super Stable G-C 3]", "apparent KD of MS2 coat protein": 13.3}
{"sequence": "CUCUUGUAAGGAUAUAAAUGAAAAGAAGUGAAAGAAAAGAAUUAGAAGGUACAUGAGGAUCACCCAUGUUAGAA [EteRNA is fun!]", "apparent KD of MS2 coat protein": 22.1}
{"sequence": "AGGGAGUAAGGAUAUGAGAAAUAAAAAGAAGGAAAAAAAGAUCAGAAGGUACAUGAGGAUCACCCAUGUGGGAA [milkweed 10]", "apparent KD of MS2 coat protein": 43.1}
{"sequence": "AAUGAUUUAGGAUAUACAUGAGGAUCACCCAUGUUCAAAUCGUGGGUCAGGUGAGAAGGUAGAAGGAAAUCACU [Soberior]", "apparent KD of MS2 coat protein": 113}
{"sequence": "AAACUACUAGGAUAUACAACGGUGUCCUAACUACUAAGAAAACAUGAGGAUCACCCAUGUAGAAGGAGUAAUAA [Cearused]", "apparent KD of MS2 coat protein": 35.8}
{"sequence": "AAAAAACAUGAGGAUCACCCAUGUGAGGAUAUGACGUAAAUAAAGAAAGAAGAAAUCGUCAGAAGGCACAAAAA [55%, Disencluded 2, 6]", "apparent KD of MS2 coat protein": 42.3}
{"sequence": "AACCAACAUGAGGAUCACCCAUGUCAGGAUAUGCAAAUAACAAACAACAAACAACAAAGCAGAAGGGACAACAA [Mat - Exclusion 1 - Eli mod - D50]", "apparent KD of MS2 coat protein": 15.4}
{"sequence": "AAAAAACAUGAGGAUCACCCAUGUGAGGAUAUGACGUAAAUAAAGAAAGAAGAAAUCGUCAGAAGGCACACCAA [55%, Disencluded 2, 5]", "apparent KD of MS2 coat protein": 29.8}
{"sequence": "AAAAAACAUGAGGAUCACCCAUGUGAGGAUAUCGCUAGUCAGUCCCUAGAGUGAGUGAUGAGAAGGCACAUAAA [Brourd 613 Mod 7 - Jieux - Exclusion 1]", "apparent KD of MS2 coat protein": 40.9}
{"sequence": "AAAAAACAUGAGGAUCACCCAUGUGAGGAUAUACAAAGAAAGACAGGCAAGUAAAGAGGUAGAAGGCGCAAAAA [Default title]", "apparent KD of MS2 coat protein": 15.4}
{"sequence": "AAAAAGUCAGGAUAUACGAAAGUGCGAAAGCACAAAAAGAGACAUGAGGAUCACCCAUGUAGAAGGGACAAGAA [Married to this design, 61% 2]", "apparent KD of MS2 coat protein": 45}
{"sequence": "AGCUAGUGAGGAUAUACGAACAUGUCAACGGACUGUAAGGGACAUGAGGAUCACCCAUGUAGAAGGCACUAGCA [Diamond 57]", "apparent KD of MS2 coat protein": 67.2}
{"sequence": "GGUUGUGAAGGAUAUACAUGAGGAUCACCCAUGUGAGAGAAAAAAGUGAGAAAGAAAAGUAGAAGGUCAUGACG [salish99-ex3-64]", "apparent KD of MS2 coat protein": 30.8}
{"sequence": "AAAAUAAAAGGAUAUAAAAAUAAAAGUCAGGAUAUAGGAAACUAGAAGGGACAUGAGGAUCACCCAUGUAAAAU [Meechl Ex4 R2 m1]", "apparent KD of MS2 coat protein": 47.8}
{"sequence": "AAAAAGUGAGGAUAUUCGGAUAGGAAAACGAAAACCUAUCCGAAGAAGGCACAUGAGGAUCACCCAUGUAAAAA [67% Ecls-II - Early G segment 1]", "apparent KD of MS2 coat protein": 37}
{"sequence": "AAAAAACAUGAGGAUCACCCAUGUGAGGAUAUCGUAAACAAAAAAAACAAAAACAAAUCGAGAAGGCACAAAAA [Amethyst 34]", "apparent KD of MS2 coat protein": 21}
{"sequence": "AGGGAGUGAGGAUAUGCGAAAGAAAAAGAAGGAAAAAAAGAGCAGAAGGUACAUGAGGAUCACCCAUGUAAAAA [milkweed 8]", "apparent KD of MS2 coat protein": 27.9}
{"sequence": "ACAAACCAAGGAUAUACAUGAGGAUCACCCAUGUGUUCGGCGUUUAGCAUGGGCAGCAGUAGAAGGUGGAGAAA [Dilareat]", "apparent KD of MS2 coat protein": 37.4}
{"sequence": "AAAAAAGGAGGAUAUACGUACAUGUCAAAAGACGUGAAGGGACAUGAGGAUCACCCAUGUAGAAGGUCUAAAAA [JL Part Open 36]", "apparent KD of MS2 coat protein": 34.5}
{"sequence": "AAAUGACAUGAGGAUCACCCAUGUCAGGAUAUGACUUGAAAAAAAAAAAAAAAACAUGUCAGAAGGGACAUGGG [Design 50: Sub-opt FB]", "apparent KD of MS2 coat protein": 15.7}
{"sequence": "CUCAUGUGAGGAUAUCAGUAGUAAAAAAAAAAAAUUACUACUGAGAAGGCACAUGAGGAUCACCCAUGUGCCUU [EX4 325: Super Stable 25]", "apparent KD of MS2 coat protein": 18.9}
{"sequence": "GACUAGUCAGGAUAUACGAACAUGUCAAAAGACGUGAAGGAACAUGAGGAUCACCCAUGUAGAAGGGACUAGCA [Diamond 19]", "apparent KD of MS2 coat protein": 25.2}
{"sequence": "AAAACUAGAGGAUAUACGAACAUGUCAAAAGACGUGAAGGGACAUGAGGAUCACCCAUGUAGAAGGCUAGAAAA [JL Stem Breaker 11]", "apparent KD of MS2 coat protein": 55.6}
{"sequence": "AGUUGGCGAGGAUAUACAUGAGGAUCACCCAUGUGAGAGAAAAACUCGAAAGAGAAAAGUAGAAGGCGCUGACA [73%, Moding Norbert Elias, 6]", "apparent KD of MS2 coat protein": 19.3}
{"sequence": "CUCAUGUGAGGAUAUCAGUAGUAAAAAAAUAAAAUUACUACUGAGAAGGCACAUGAGGAUCACCCAUGUGCCAA [EX4 337: Super Stable 37]", "apparent KD of MS2 coat protein": 21.3}
{"sequence": "AUCUUGUGAGGAUAUGCAUGAAAUGAAGUGAAAGAAAAGAAGCAGAAGGCACAUGAGGAUCACCCAUGUUAGAA [EteRNA is fun!]", "apparent KD of MS2 coat protein": 33.5}
{"sequence": "AGGAUGUCAGGAUAUGUGUAAAGAAUAAAACAAAUAACAACACAGAAGGGACAUGAGGAUCACCCAUGUUACCA [May 37]", "apparent KD of MS2 coat protein": 19.9}
{"sequence": "CUCAAGUGAGGAUAUUCAAGAAAAGAAAAGAAAGAAAAGAAGAAGAAGGCACAUGAGGAUCACCCAUGUAAGAA [EteRNA is fun!]", "apparent KD of MS2 coat protein": 34.9}
{"sequence": "AGCUAGUCAGGAUAUACGAACAUGUCAGAAGACGUGAAGGGACAUGAGGAUCACCCAUGUAGAAGGGACUAGCG [74%, Web mod - With 2 more G's]", "apparent KD of MS2 coat protein": 34.9}
{"sequence": "AAAAAUGGAGGAUAUACAUGAGGAUCACCCAUGUGUGACUAUACUAUGUGCUCUUCAGGUAGAAGGCCAAAAAA [Gilly Gone Silly 19 - Jieux - Exclusion 3]", "apparent KD of MS2 coat protein": 44.3}
{"sequence": "AACAUGUAAGGAUAUAGAAGAAAAGAAAAGAAAGAAAAGAACUAGAAGGUACAUGAGGAUCACCCAUGUAAGAA [EteRNA is fun!]", "apparent KD of MS2 coat protein": 33.1}
{"sequence": "AAUUAGUGAGGAUAUACAUGAGGAUCACCCAUGUGUAAAAAAAAACGCAAAAAAGAAUGUAGAAGGCACUAAAA [Ex 3 Cold]", "apparent KD of MS2 coat protein": 20.3}
{"sequence": "AAAAAUGGAGGAUAUACAUGAGGAUCACCCAUGUGUAACUAUACUAAGCACAAACCACGUAGAAGGCCAAAAAA [Gilly Gone Silly 11 - Jieux - Exclusion 3]", "apparent KD of MS2 coat protein": 51.7}
{"sequence": "AACUGACAUGAGGAUCACCCAUGUCAGGAUAUGAUUUGACGAAAUAAAAUAAGUCAUAUCAGAAGGGACAUGGG [Design 83: Sub-opt VB]", "apparent KD of MS2 coat protein": 26.2}
{"sequence": "AAAAGCAGAGGAUAUACAUAAUUAUGACGAAAGUCAUAAAAACAUGAGGAUCACCCAUGUAGAAGGCUGCAAAA [MOD of Meechl's MS2 Ex2 (MS2 riboswitches - Exlclusion 2)]", "apparent KD of MS2 coat protein": 24.9}
{"sequence": "AGUCAUACAGGAUAUACAUGAGGAUCACCCAUGUAUAUCCAAAAAAGGUGAUCCUCAUGUAGAAGGGUAUGACA [EX3 202: Super Stable 2]", "apparent KD of MS2 coat protein": 13.7}
{"sequence": "GAAAAGUGAGGAUAUGCGAAGGCGUCUGAUAGACGAGGCUAGCAGAAGGCACAUGAGGAUCACCCAUGUGGGAG [Mat - Exclusion 4 - Eli mod - D92]", "apparent KD of MS2 coat protein": 61.9}
{"sequence": "ACAGUUACAGGAUAUACAUGGGUGAAAAAAGUAUAUCCACUACAUGAGGAUCACCCAUGUAGAAGGGUAACUGA [Ex2 Design 174: Random 3]", "apparent KD of MS2 coat protein": 18.6}
{"sequence": "AAGGGACAUGAGGAUCACCCAUGUGAGGAUAUGAUGCGAAUAAAGAAAGAAGAAAGCAUCAGAAGGCACACCAA [58%, Disencluded 3, 7]", "apparent KD of MS2 coat protein": 67.8}
{"sequence": "AGUAUGCGAGGAUAUACAUGAGGAUCACCCAUGUGAGAGAUAAGUGUGAGAAAGACAUGUAGAAGGCGCGUACA [JL Lego Mod 28]", "apparent KD of MS2 coat protein": 146}
